Read-outs that look alike come from different tables or passages of the source.
How the values were obtained:
[1] = test system: T47D cells; assay: Cell viability (cell kill) assay; format: cell-based; conditions: T47D; for IC50: read-out: IC50
Procedure: (§1) Next, the ability of anti-PRLR-DM1 antibody-drug conjugates (i.e., anti-PRLR antibodies conjugated to DM1 via a non-cleavable linker [SMCC]) to reduce cell viability was determined using in vitro cell based assays. Cells were seeded in PDL-coated 96 well plates at 1500 to 10000 cells per well in complete growth media and allowed to grow overnight. For cell viability curves, ADCs or free DM1 (as the methyl disulfide derivative DM1-SMe) were added to the cells at final concentrations ranging from 500 nM to 5 pM and incubated for 3 days. The 293, PC3 and T47D cells were incubated with CCK8 (Dojindo, Rockville, Md.) for the final 1-3 hours and the absorbance at 450 nm (OD450) was determined on a Flexstation3 (Molecular Devices, Sunnyvale, Calif.). MCF7 cells were treated with Hoechst 33342 nuclear stain while being fixed with 4% formaldehyde. Images were acquired on the ImageXpress micro XL (Molecular Devices, Sunnyvale, Calif.) and nuclear counts were determined via Columbus image analysis software (Perkin Elmer, Shelton, Conn.). Background OD450 values (PC3, 293, and T47D) or nuclear counts (MCF7) from digitonin (40 nM) treated cells was subtracted from all wells and viability was expressed as a percentage of the untreated controls. IC50 values were determined from a four-parameter logistic equation over a 10-point response curve (GraphPad Prism).
Additionally, the impact of the PRLR ligand, PRL, on PRLR-SMCC-DM1 cell kill in T47D cells was assessed. T47D cells were incubated simultaneously with PRL (15 nM) and either a non-blocking anti PRLR antibody (H1H6782P) or a receptor blocking antibody (H1H6958N2).
(§2) Additional toxins (DM4, MeNHC3-May, and MMD) conjugated to anti-PRLR antibodies were also tested in T47D and MCF7/hPRLR cell lines, and results are summarized in Tables 19 (293 and T47D cell killing) and 20 (MCF7/ATCC and MCF7/PRLR cell killing). (ND=not detected).

[2] = test system: PC3/hPRLR cells; assay: Cell viability (cell kill) assay; format: cell-based, human
Source text: (§3) PRLR-overexpressing cells, including HEK293, PC3, MCF7 and NCI-N87, were generated to assess the ability of anti-PRLR conjugated antibodies to reduce cell viability. For comparative purposes, PC3 and T47D cells with overexpressed ErbB2 were also generated, as well as an MCF7 cell line over-expressing both hPRLR and hErbB2. Briefly, Lipofectamine® 2000-mediated transfection methodology was utilized to generate HEK293 cells expressing human PRLR (HEK293/hPRLR) or human ErbB2 (HEK293/hErbB2). Lipofectamine LTX with Plus Reagent was used to generate PC3 cells expressing human PRLR (PC3/hPRLR) or human ErbB2 (PC3/hErbB2). Lentiviral-mediated transduction was utilized to generate MCF7 cells expressing human PRLR (MCF7/hPRLR), NCI-N87 cells expressing human PRLR (NCI-N87/hPRLR), T47D cells over-expressing human ErbB2 (T47D/hErbB2), and MCF7 cells expressing both human PRLR and human ErbB2 (MCF7/hPRLR/hErbB2). All lines were selected for at least two weeks in complete growth media plus appropriate selection reagents. Stably expressing populations were enriched for PRLR expression via FACS using the anti PRLR antibody Control I.
as §1
(§4) Finally, the potency of anti-PRLR antibodies conjugated to DM1 via the non-cleavable linker SMCC was compared to the cell killing potency of anti-PRLR antibodies conjugated to MMAE via the cleavable linker: mc-vc-PAB (available from Concortis, San Diego, Calif.). Cells used in this experiment were PC3, PC3/hPRLR, MCF7/ATCC and MCF7/PRLR.

[3] = test system: PC3 cells; assay: Cell viability (cell kill) assay; format: cell-based
Source text: as §3, §1, §4

[4] = test system: HEK293 (293) cells; assay: Cell viability (cell kill) assay; format: cell-based; conditions: 293
Source text: as §3, §1

[5] = test system: MCF7/hPRLR (MCF7/PRLR) cells; assay: Cell viability (cell kill) assay, nuclear counts; format: cell-based, human
Source text: as §3, §1, §4, §2

[6] = test system: MCF7 (MCF7/ATCC) cells; assay: Cell viability (cell kill) assay, nuclear counts; format: cell-based
Source text: as §3, §1, §4, §2

[7] = Conjugate characterization: protein and linker/payload concentrations, payload loading (UV, MALDI-TOF, SEC-HPLC, RP-HPLC); format: physicochemical; conditions: Anti-PRLR-SMCC-DM1 conjugates; Table 9
Source text: Selected anti-PRLR antibodies were conjugated to the maytansinoid DM1 through an SMCC linker using methods similar to those set forth in U.S. Pat. No. 5,208,020 and US Patent Application Publication No. 2010/0129314, the disclosures of which are incorporated by reference herein in their entireties. The conjugates were purified by size exclusion chromatography and sterile filtered. All starting materials and solvents were purchased commercially and used without purification, unless otherwise noted.
Protein and linker/payload concentrations were determined by UV spectral analysis and MALDI-TOF mass spectrometry. Size-exclusion HPLC established that all conjugates used were >95% monomeric, and RP-HPLC established that there was <0.5% unconjugated linker payload. Yields are reported in Table 8 and 9 based on protein. All conjugated antibodies were analyzed by UV for linker payload loading values according to Hamblett et al, 2004, Clinical Cancer Research 10(20):7063-7070, and by mass difference, native versus conjugated.

B1: H1H6800P-DM1 (conjugate)
VH: EVQLVESGGGLVQPGRSLRLSCAASGFTFDGYAMHWVRQGPGKGLEWVSGISWYSDTLGYADSVKGRFTISRDNAKNSLYLQMNSLRTEDTAFYYCAKISSSGWAFDYWGQGTLVTVSS
VL: EIVLTQSPGTLSLSPGERATLSCRASHSVSSAYLAWYQQKPGQTPRLLIYGTSSRATGIPDRFSGSGSGTDFTLTISRLEPEDFAVYYCQQYGSSPLFTFGPGTKVDIK
For B1, the “% Kill” value ([1]; Table 12, 3 days) was 79%, the IC50 ([1]; Table 12, 3 days) was 3.2 nM and the “% Kill” value ([2]; PC3/PRLR, Table 11, 3 days) was 68%. For the same molecule, the IC50 ([2]; PC3/PRLR, Table 11, 3 days) was 1.37 nM, the IC50 ([3]; Table 11, 3 days) was 150 nM and the “% Kill” value ([4]; Table 11, 3 days) was 85%. For the same molecule, the IC50 ([4]; Table 11, 3 days) was 150 nM, the “% Kill” value ([5]; Table 12, 3 days) was 85% and the IC50 ([5]; Table 12, 3 days) was 0.4 nM. The “% Kill” value ([6]; MCF7, Table 12, 3 days) was 65%, the IC50 ([6]; MCF7, Table 12, 3 days) was 150 nM and the “Payload:Antibody Molar Ratio (MS)” value [7] was 3.2. The “Payload:Antibody Molar Ratio (UV)” value [7] was 3.0.

B2: H1H6953N-SMCC-DM1 (conjugate)
VH: EVQLLESGGGLVQPGGTLRLSCAASGFTFSAYAMSWVRQAPGKGLEWVSSINVRAGDTYYADSVKGRFTISRDNSKNTLFLLMNSLRAEDTAAYYCAKARYSSNWGFDFWGQGTLVTVSS
VL: DIVMTQSPDSLTVSLGARTTINCQSSQTILHSSNNHNYLAWYQQKPGLPPKLLIYWSSTRESGVPDRFSGSGSGTDFTLTISSLQAEDVAIYYCQQYSNTPYTFGQGTKLEIN
With B2 the “% Kill” value ([1]; Table 19) was 100%, the IC50 ([1]; Table 19) was 1.5 nM and the “% Kill” value ([2]; PC3/hPRLR, Table 18) was 83%. For the same molecule, the IC50 ([2]; PC3/hPRLR, Table 18) was 0.4 nM, the IC50 ([3]; Table 18) was 90 nM and the “% Kill” value ([4]; Table 19) was 90%. For the same molecule, the IC50 ([4]; Table 19) was 100 nM, the “% Kill” value ([5]; Table 18) was 80% and the IC50 ([5]; Table 18) was 0.1 nM. The “% Kill” value ([5]; Table 20) was 80%, the IC50 ([5]; Table 20) was 0.3 nM and the “% Kill” value ([6]; MCF7/ATCC, Table 18) was 70%. The IC50 ([6]; MCF7/ATCC, Table 18) was 80 nM, the “% Kill” value ([6]; MCF7/ATCC, Table 20) was 70% and the IC50 ([6]; MCF7/ATCC, Table 20) was 90 nM.

B3: H1H6958N2-mc-VC-PAB-MMAE (conjugate)
VH: QVQLVESGGGVVQPGRSLRLSCGASGFTFRNYGMQWVRQGPGKGLEWVTLISFDGNDKYYADSVKGRFTISRDNSKNTLFLQMNSLRTEDTAVYYCARGGDFDYWGQGTLVTVSS
VL: DIQMTQSPSSLSASVGDRVTITCRASQDIRKDLGWYQQKPGKAPKRLIYAASSLHSGVPSRFSGSGSGTEFTLTISSLQPEDFATYYCLQHNSYPMYTFGQGTKLEIK
For B3, the “% Kill” value ([1]; Table 19) was 90%, the IC50 ([1]; Table 19) was 1 nM and the “% Kill” value ([2]; PC3/hPRLR, Table 18) was 82%. The IC50 ([2]; PC3/hPRLR, Table 18) was 0.5 nM, the IC50 ([3]; Table 18) was 100 nM and the “% Kill” value ([5]; Table 18) was 88%. For the same molecule, the IC50 ([5]; Table 18) was 0.2 nM, the “% Kill” value ([5]; Table 20) was 90% and the IC50 ([5]; Table 20) was 0.2 nM. The “% Kill” value ([6]; MCF7/ATCC, Table 18) was 53%, the IC50 ([6]; MCF7/ATCC, Table 18) was 150 nM and the “% Kill” value ([6]; MCF7/ATCC, Table 20) was 50%. It also gave an IC50 ([6]; MCF7/ATCC, Table 20) of 150 nM.

B4: H1H6765P-mc-VC-PAB-MMAE (conjugate)
VH: EVQLVESGGGVVRPGGSLRLSCVGSGFSFDDHGMNWVRQGPGKGLEWVSGFNWNGGSTNYAESVKGRFTISRDNARNSLFLQMNSLRAEDTALYYCVRGRSGWFNDAFDVWGPGTMVTVSS
VL: EIVLTQSPGTLSLSPGERATLSCRASQTINSNYLAWYRQKPGQTPRLLIYGTSSRATGIPDRFSGSGSGTDFSLTISRLEPEDFAVFYCQQYAGLPTFGPGTKVDIK
With B4 the “% Kill” value ([1]; Table 19) was 90%, the IC50 ([1]; Table 19) was 1 nM and the “% Kill” value ([2]; PC3/hPRLR, Table 18) was 85%. For the same molecule, the IC50 ([2]; PC3/hPRLR, Table 18) was 0.4 nM, the IC50 ([3]; Table 18) was 150 nM and the “% Kill” value ([5]; Table 18) was 86%. For the same molecule, the IC50 ([5]; Table 18) was 0.2 nM, the “% Kill” value ([5]; Table 20) was 90% and the IC50 ([5]; Table 20) was 0.2 nM. For the same molecule, the “% Kill” value ([6]; MCF7/ATCC, Table 18) was 38%, the IC50 ([6]; MCF7/ATCC, Table 18) was 150 nM and the “% Kill” value ([6]; MCF7/ATCC, Table 20) was 40%. For the same molecule, the IC50 ([6]; MCF7/ATCC, Table 20) was 150 nM.

Source: patent publication US9688764B2, “Methods of treating breast cancer by administering anti-human prolactin receptor (PRLR) antibodies” (REGENERON PHARMACEUTICALS, INC., priority 2013, dated 2017)
